Results on two molecules are retold here after PMC11162772, “FUS reads histone H3K36me3 to regulate alternative polyadenylation”.

The target of one series is FUS-ΔZNF (UniProt P35637 1-421+454-526, internal_change). As to the kind of experiment: MST; no significant decrease vs WT; MST: PBS with 0.05% BSA and 0.05% Tween-20, 5 nM Cy5-RNA, temperature not stated; nucleosome pull-down buffer not given. The settings on record: protein: recombinant; tags: GST (pGEX-6p-2); label: 3' Cy5.
In series [1] the target is FUS P421L (so in the source) (UniProt P35637 1-526, P431L). Description: MST; slightly increased affinity vs WT; MST: PBS with 0.05% BSA and 0.05% Tween-20, 5 nM Cy5-RNA, temperature not stated; nucleosome pull-down buffer not given. The settings on record: protein: recombinant; tags: GST (pGEX-6p-2); label: 3' Cy5.
FUS P421L (so in the source), sequence (P35637 whole entry P431L): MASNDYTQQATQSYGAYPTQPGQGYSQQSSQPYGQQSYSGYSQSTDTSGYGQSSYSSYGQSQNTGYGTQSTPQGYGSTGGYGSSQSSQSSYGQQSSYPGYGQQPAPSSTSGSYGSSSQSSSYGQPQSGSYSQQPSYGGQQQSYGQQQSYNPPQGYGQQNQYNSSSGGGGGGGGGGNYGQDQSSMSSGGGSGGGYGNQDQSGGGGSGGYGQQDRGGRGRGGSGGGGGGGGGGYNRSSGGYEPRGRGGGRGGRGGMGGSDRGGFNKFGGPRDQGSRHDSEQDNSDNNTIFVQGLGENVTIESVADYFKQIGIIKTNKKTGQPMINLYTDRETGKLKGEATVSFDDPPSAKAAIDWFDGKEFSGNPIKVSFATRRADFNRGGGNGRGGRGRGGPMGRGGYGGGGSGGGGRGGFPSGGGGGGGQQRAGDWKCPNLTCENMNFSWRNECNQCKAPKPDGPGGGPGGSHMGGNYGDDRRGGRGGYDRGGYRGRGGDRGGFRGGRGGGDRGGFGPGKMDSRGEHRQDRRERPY

FUS-ΔZNF, sequence (P35637 other isoform, or with tags, fused parts or gaps | mutant): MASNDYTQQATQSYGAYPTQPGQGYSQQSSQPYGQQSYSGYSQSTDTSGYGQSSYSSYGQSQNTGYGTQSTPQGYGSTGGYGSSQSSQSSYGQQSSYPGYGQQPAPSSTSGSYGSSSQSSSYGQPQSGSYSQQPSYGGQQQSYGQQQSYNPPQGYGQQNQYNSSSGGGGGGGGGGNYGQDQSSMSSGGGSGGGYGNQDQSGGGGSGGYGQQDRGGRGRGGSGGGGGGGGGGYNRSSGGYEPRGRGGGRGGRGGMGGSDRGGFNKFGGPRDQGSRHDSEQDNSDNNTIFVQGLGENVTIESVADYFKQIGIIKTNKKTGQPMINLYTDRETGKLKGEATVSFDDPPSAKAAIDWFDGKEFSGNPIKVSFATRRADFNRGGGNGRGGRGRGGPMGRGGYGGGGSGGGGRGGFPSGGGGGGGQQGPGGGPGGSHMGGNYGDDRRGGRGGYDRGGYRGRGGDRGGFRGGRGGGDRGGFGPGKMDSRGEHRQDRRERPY

B1: 5XGGUG-3'Cy5 (ssRNA)
RNA: GGUGGGUGGGUGGGUGGGUG
For B1, the binding result (in the series with FUS-ΔZNF; in series [1]) was “binds” in each case.

B2: 4XUUAGGG-3'Cy5 (ssRNA)
RNA: UUAGGGUUAGGGUUAGGGUUAGGG
For B2, the binding result with FUS-ΔZNF is recorded as “binds”.
